Measured values taken from patent US20240076384A1.

What was measured:
[1] = target: soluble mouse Fc-human NKG2D dimer (human) (UniProt P26718); assay: SPR, 37 C, average of three experiments for TriNKET A (columns shifted)
[2] = target: soluble mouse Fc-human NKG2D dimer (human) (UniProt P26718); assay: SPR, 37 C, mFc-hNKG2D captured, TriNKET as analyte, kinetic fit, experiment 1
[3] = target: soluble mouse Fc-human NKG2D dimer (human) (UniProt P26718); assay: SPR, 37 C, mFc-hNKG2D captured, TriNKET as analyte, steady state affinity fit, experiment 1
[4] = target: soluble mouse Fc-human NKG2D dimer (human) (UniProt P26718); assay: SPR, 37 C, mFc-hNKG2D captured, TriNKET as analyte, experiment 1
[5] = target: soluble mouse Fc-human NKG2D dimer (human) (UniProt P26718); assay: SPR, 37 C, kinetic fit, average of three experiments for TriNKET A (cell split over r19 and r20, columns shifted)
[6] = target: soluble mouse Fc-human NKG2D dimer (human) (UniProt P26718); assay: SPR, 37 C, mFc-hNKG2D captured, TriNKET as analyte, steady state affinity fit, experiment 2
[7] = target: soluble mouse Fc-human NKG2D dimer (human) (UniProt P26718); assay: SPR, 37 C, mFc-hNKG2D captured, TriNKET as analyte, steady state affinity fit, experiment 3
[8] = target: soluble mouse Fc-human NKG2D dimer (human) (UniProt P26718); assay: SPR, 37 C, steady state affinity fit, average of three experiments for TriNKET A (cell split over r19 and r20, columns shifted)
[9] = target: soluble mouse Fc-human NKG2D dimer (human) (UniProt P26718); assay: SPR, 37 C, mFc-hNKG2D captured, TriNKET as analyte, kinetic fit, experiment 3
[10] = target: soluble mouse Fc-human NKG2D dimer (human) (UniProt P26718); assay: SPR, 37 C, mFc-hNKG2D captured, TriNKET as analyte, kinetic fit, experiment 2
[11] = target: soluble mouse Fc-human NKG2D dimer (human) (UniProt P26718); assay: SPR, 37 C, mFc-hNKG2D captured, TriNKET as analyte, experiment 3
[12] = target: soluble mouse Fc-human NKG2D dimer (human) (UniProt P26718); assay: SPR, 37 C, mFc-hNKG2D captured, TriNKET as analyte, experiment 2

soluble mouse Fc-human NKG2D dimer (human), sequence (P26718 78-216): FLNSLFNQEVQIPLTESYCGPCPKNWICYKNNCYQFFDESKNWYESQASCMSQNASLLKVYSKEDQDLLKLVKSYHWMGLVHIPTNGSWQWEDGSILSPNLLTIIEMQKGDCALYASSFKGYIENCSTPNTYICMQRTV

Stoichiometry [1]: 1.01
Kd [2]: 605 nM
koff [2]: 0.116 s⁻¹
kon [2]: 191000 M⁻¹ s⁻¹
Kd [3]: 462 nM
Stoichiometry [4]: 1.01
koff [5]: 0.112 s⁻¹
kon [5]: 196000 M⁻¹ s⁻¹
Kd [6]: 420 nM
Kd [7]: 580 nM
Kd [8]: 487 nM
Kd [9]: 595 nM
koff [9]: 0.115 s⁻¹
kon [9]: 193000 M⁻¹ s⁻¹
Kd [10]: 523 nM
koff [10]: 0.106 s⁻¹
kon [10]: 203000 M⁻¹ s⁻¹
Stoichiometry [11]: 1.12
Stoichiometry [12]: 0.88
B1: TriNKET A (a TriNKET containing A49) (bispecific antibody, part only; not given: Tumour antigen arm, constant regions, Fc, V domains shown, not shown: another chain or arm of the molecule; a dimerising Fc or GST)
VH: EVQLVESGGGLVKPGGSLRLSCAASGFTFSSYSMNWVRQAPGKGLEWVSSISSSSSYIYYADSVKGRFTISRDNAKNSLYLQMNSLRAEDTAVYYCARGAPMGAAAGWFDPWGQGTLVTVSS
VL: DIQMTQSPSSVSASVGDRVTITCRASQGISSWLAWYQQKPGKAPKLLIYAASSLQSGVPSRFSGSGSGTDFTLTISSLQPEDFATYYCQQGVSFPRTFGGGTKVEIK
